# Data reported in the supplement of paper PMC9112550, “Optimization of the antimicrobial peptide Bac7 by deep mutational scanning” (BMC Biology, 2022).
# Tested on: Escherichia coli TOP10
# Test: shrunken log2 fold change of peptide-encoding DNA abundance (4.5 h post-induction vs induction); higher = less antimicrobial activity (less host growth inhibition)
# Details: time post-induction: 4.5 h; library: site-saturation at positions 5, 18, 19, 20
# 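Note: peptides expressed intracellularly from a pBAD plasmid library in pooled LB shake-flask culture, induced with 0.3% L-arabinose, DNA abundance read by NGS, three biological replicates, DESeq2 with apeglm shrinkage.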
sequence,measurement,value
RRIRLRPPRLPRPRPRPSSEPRP,shrunken log2 fold change,0.0265
RRIRERPPRLPRPRPRPSCSPRP,shrunken log2 fold change,-0.412
RRIRQRPPRLPRPRPRPTDWPRP,shrunken log2 fold change,0.0907
RRIRVRPPRLPRPRPRPGGNPRP,shrunken log2 fold change,-0.0392
RRIRFRPPRLPRPRPRPLDLPRP,shrunken log2 fold change,-0.366
RRIRCRPPRLPRPRPRPIDAPRP,shrunken log2 fold change,-0.268
RRIRKRPPRLPRPRPRPYIYPRP,shrunken log2 fold change,-0.0483
RRIRIRPPRLPRPRPRPMWKPRP,shrunken log2 fold change,-0.0693
RRIRNRPPRLPRPRPRPAGWPRP,shrunken log2 fold change,0.558
RRIRRRPPRLPRPRPRPYFTPRP,shrunken log2 fold change,-0.432
RRIRPRPPRLPRPRPRPWGDPRP,shrunken log2 fold change,-0.0121
RRIRGRPPRLPRPRPRPECQPRP,shrunken log2 fold change,0.381
RRIRRRPPRLPRPRPRPAWYPRP,shrunken log2 fold change,0.176
RRIRNRPPRLPRPRPRPTNRPRP,shrunken log2 fold change,-0.00917
RRIRERPPRLPRPRPRPQFAPRP,shrunken log2 fold change,-0.148
RRIRGRPPRLPRPRPRPERRPRP,shrunken log2 fold change,0.277
RRIRRRPPRLPRPRPRPEDSPRP,shrunken log2 fold change,0.0554
RRIRCRPPRLPRPRPRPQPPPRP,shrunken log2 fold change,0.806
RRIRQRPPRLPRPRPRPRFDPRP,shrunken log2 fold change,-0.0137
RRIRQRPPRLPRPRPRPWHCPRP,shrunken log2 fold change,-0.0682
RRIRSRPPRLPRPRPRPSCGPRP,shrunken log2 fold change,-0.0515
RRIRGRPPRLPRPRPRPNKMPRP,shrunken log2 fold change,0.162
RRIRNRPPRLPRPRPRPKKTPRP,shrunken log2 fold change,-0.197
RRIRNRPPRLPRPRPRPVSPPRP,shrunken log2 fold change,-0.087
RRIRYRPPRLPRPRPRPLAAPRP,shrunken log2 fold change,0.153
RRIRKRPPRLPRPRPRPEQKPRP,shrunken log2 fold change,0.125
RRIRFRPPRLPRPRPRPRHYPRP,shrunken log2 fold change,-0.477
RRIRRRPPRLPRPRPRPCHKPRP,shrunken log2 fold change,0.153
RRIRNRPPRLPRPRPRPIHKPRP,shrunken log2 fold change,-0.377
RRIRRRPPRLPRPRPRPTWVPRP,shrunken log2 fold change,0.275
RRIRMRPPRLPRPRPRPGSEPRP,shrunken log2 fold change,0.952
RRIRCRPPRLPRPRPRPENRPRP,shrunken log2 fold change,-0.168
RRIRIRPPRLPRPRPRPKVYPRP,shrunken log2 fold change,-0.394
RRIRRRPPRLPRPRPRPPDKPRP,shrunken log2 fold change,0.303
RRIRCRPPRLPRPRPRPEGYPRP,shrunken log2 fold change,0.461
RRIRCRPPRLPRPRPRPEDIPRP,shrunken log2 fold change,-0.12
RRIRHRPPRLPRPRPRPVRIPRP,shrunken log2 fold change,0.0159
RRIRYRPPRLPRPRPRPRFWPRP,shrunken log2 fold change,0.184
RRIRMRPPRLPRPRPRPVNPPRP,shrunken log2 fold change,0.00934
RRIRYRPPRLPRPRPRPEKRPRP,shrunken log2 fold change,0.00709
RRIRDRPPRLPRPRPRPDLLPRP,shrunken log2 fold change,0.106
RRIRHRPPRLPRPRPRPKTLPRP,shrunken log2 fold change,-0.984
RRIRERPPRLPRPRPRPLAMPRP,shrunken log2 fold change,-0.246
RRIRFRPPRLPRPRPRPRWAPRP,shrunken log2 fold change,0.305
RRIRARPPRLPRPRPRPPGCPRP,shrunken log2 fold change,0.746
RRIRNRPPRLPRPRPRPFADPRP,shrunken log2 fold change,0.0675
RRIRERPPRLPRPRPRPEIKPRP,shrunken log2 fold change,-0.0374
RRIRVRPPRLPRPRPRPLNVPRP,shrunken log2 fold change,-0.434
RRIRVRPPRLPRPRPRPILCPRP,shrunken log2 fold change,0.0143
RRIRKRPPRLPRPRPRPMRQPRP,shrunken log2 fold change,0.384
RRIRERPPRLPRPRPRPMKNPRP,shrunken log2 fold change,-0.22
RRIRDRPPRLPRPRPRPIKSPRP,shrunken log2 fold change,-0.236
RRIRPRPPRLPRPRPRPLACPRP,shrunken log2 fold change,0.265
RRIRFRPPRLPRPRPRPLRPPRP,shrunken log2 fold change,0.932
RRIRFRPPRLPRPRPRPAPMPRP,shrunken log2 fold change,0.282
RRIRERPPRLPRPRPRPEKFPRP,shrunken log2 fold change,-0.287
RRIRRRPPRLPRPRPRPWIVPRP,shrunken log2 fold change,3
RRIRFRPPRLPRPRPRPKETPRP,shrunken log2 fold change,-0.0433
RRIRWRPPRLPRPRPRPAVYPRP,shrunken log2 fold change,-0.682
RRIRGRPPRLPRPRPRPWRPPRP,shrunken log2 fold change,0.376
RRIRVRPPRLPRPRPRPVNVPRP,shrunken log2 fold change,-0.411
RRIRKRPPRLPRPRPRPYPGPRP,shrunken log2 fold change,-0.142
RRIRVRPPRLPRPRPRPEGFPRP,shrunken log2 fold change,0.0396
RRIRWRPPRLPRPRPRPNKDPRP,shrunken log2 fold change,-0.393
RRIRGRPPRLPRPRPRPTPFPRP,shrunken log2 fold change,0.629
RRIRIRPPRLPRPRPRPGANPRP,shrunken log2 fold change,0.0193
RRIRQRPPRLPRPRPRPPEQPRP,shrunken log2 fold change,0.00242
RRIRIRPPRLPRPRPRPICHPRP,shrunken log2 fold change,-0.326
RRIRFRPPRLPRPRPRPPWQPRP,shrunken log2 fold change,0.361
RRIRFRPPRLPRPRPRPGMVPRP,shrunken log2 fold change,-0.0783
RRIRPRPPRLPRPRPRPMTNPRP,shrunken log2 fold change,-0.184
RRIRRRPPRLPRPRPRPPVKPRP,shrunken log2 fold change,0.369
RRIRIRPPRLPRPRPRPYSMPRP,shrunken log2 fold change,-0.436
RRIRSRPPRLPRPRPRPNNVPRP,shrunken log2 fold change,-0.592
RRIRKRPPRLPRPRPRPYMNPRP,shrunken log2 fold change,-0.505
RRIRNRPPRLPRPRPRPWQRPRP,shrunken log2 fold change,-0.0153
RRIRTRPPRLPRPRPRPDRVPRP,shrunken log2 fold change,-0.0605
RRIRKRPPRLPRPRPRPSIYPRP,shrunken log2 fold change,-0.353
RRIRLRPPRLPRPRPRPLYTPRP,shrunken log2 fold change,-0.461
RRIRQRPPRLPRPRPRPGDGPRP,shrunken log2 fold change,0.415
RRIRDRPPRLPRPRPRPHWWPRP,shrunken log2 fold change,0.272
RRIRFRPPRLPRPRPRPNFVPRP,shrunken log2 fold change,-0.269
RRIRWRPPRLPRPRPRPIWCPRP,shrunken log2 fold change,0.151
RRIRQRPPRLPRPRPRPPRAPRP,shrunken log2 fold change,0.552
RRIRRRPPRLPRPRPRPSKSPRP,shrunken log2 fold change,0.292
RRIRFRPPRLPRPRPRPNPRPRP,shrunken log2 fold change,0.427
RRIRCRPPRLPRPRPRPSFSPRP,shrunken log2 fold change,-0.571
RRIRLRPPRLPRPRPRPDPAPRP,shrunken log2 fold change,0.752
RRIRSRPPRLPRPRPRPRDLPRP,shrunken log2 fold change,0.254
RRIRLRPPRLPRPRPRPFVLPRP,shrunken log2 fold change,-0.513
RRIRPRPPRLPRPRPRPKYPPRP,shrunken log2 fold change,-0.672
RRIRRRPPRLPRPRPRPFFFPRP,shrunken log2 fold change,0.504
RRIRPRPPRLPRPRPRPEFTPRP,shrunken log2 fold change,0.26
RRIRVRPPRLPRPRPRPFFHPRP,shrunken log2 fold change,0.145
RRIRHRPPRLPRPRPRPDQEPRP,shrunken log2 fold change,-0.01
RRIRGRPPRLPRPRPRPEYLPRP,shrunken log2 fold change,0.468
RRIRERPPRLPRPRPRPAAAPRP,shrunken log2 fold change,0.436
RRIRTRPPRLPRPRPRPLMAPRP,shrunken log2 fold change,-0.031
RRIRPRPPRLPRPRPRPPTKPRP,shrunken log2 fold change,0.268
RRIRVRPPRLPRPRPRPLDWPRP,shrunken log2 fold change,0.188
RRIRKRPPRLPRPRPRPVMAPRP,shrunken log2 fold change,0.588
RRIRCRPPRLPRPRPRPQNEPRP,shrunken log2 fold change,-0.389
RRIRERPPRLPRPRPRPNRWPRP,shrunken log2 fold change,0.0283
RRIRFRPPRLPRPRPRPEYDPRP,shrunken log2 fold change,0.0271
RRIRGRPPRLPRPRPRPHMRPRP,shrunken log2 fold change,0.997
RRIRFRPPRLPRPRPRPTAYPRP,shrunken log2 fold change,-0.243
RRIRCRPPRLPRPRPRPKVMPRP,shrunken log2 fold change,-0.184
RRIRYRPPRLPRPRPRPNLQPRP,shrunken log2 fold change,-0.614
RRIRTRPPRLPRPRPRPCEFPRP,shrunken log2 fold change,-0.258
RRIRVRPPRLPRPRPRPWETPRP,shrunken log2 fold change,0.0394
RRIRGRPPRLPRPRPRPQSIPRP,shrunken log2 fold change,0.108
RRIRCRPPRLPRPRPRPGSVPRP,shrunken log2 fold change,0.102
RRIRIRPPRLPRPRPRPHVTPRP,shrunken log2 fold change,-0.132
RRIRQRPPRLPRPRPRPGHMPRP,shrunken log2 fold change,0.0335
RRIRPRPPRLPRPRPRPENSPRP,shrunken log2 fold change,-0.0155
RRIRFRPPRLPRPRPRPEGMPRP,shrunken log2 fold change,-0.0976
RRIRNRPPRLPRPRPRPIIVPRP,shrunken log2 fold change,-0.286
RRIRCRPPRLPRPRPRPIISPRP,shrunken log2 fold change,-0.346
RRIRYRPPRLPRPRPRPRIYPRP,shrunken log2 fold change,-0.569
RRIRMRPPRLPRPRPRPCTAPRP,shrunken log2 fold change,0.191
RRIRYRPPRLPRPRPRPHPYPRP,shrunken log2 fold change,-0.449
RRIRKRPPRLPRPRPRPNANPRP,shrunken log2 fold change,0.135
RRIRQRPPRLPRPRPRPVNSPRP,shrunken log2 fold change,-0.0167
RRIRDRPPRLPRPRPRPYLWPRP,shrunken log2 fold change,-0.0398
RRIRWRPPRLPRPRPRPQDNPRP,shrunken log2 fold change,-0.421
